Assay results as given in paper PMC9504172.

How the values were obtained:
Assay in all cases: pull-down; GST-Rab11 proteins immobilized on glutathione-Sepharose beads; lysates of cells expressing GFP-SPIN90 in buffer B (25 mM HEPES, 100 mM NaCl, 5 mM MgCl2, 1% NP-40, 10% glycerol); 2 h at 4 °C; immunoblot with anti-GFP
GST-Rab11 Q70L (human) = GST-Rab11 Q70L (human) (UniProt P62491)
GST-Rab11 S25N (human) = GST-Rab11 S25N (human) (UniProt P62491)
GST-Rab11 WT (human) = GST-Rab11 WT (human) (UniProt P62491)

relative band intensity (normalized to GST-Rab11 WT with SPIN90 FL) (GST-Rab11 Q70L (human)): 1.43
relative band intensity (normalized to GST-Rab11 WT with SPIN90 FL) (GST-Rab11 S25N (human)): 2.89
relative band intensity (normalized to GST-Rab11 WT with SPIN90 FL) (GST-Rab11 WT (human)): 1.8
Substance: GFP-SPIN90 C-term (C) (domain or fragment)
